Data reported in patent publication US20250019427A1 (BYOMASS, published 2025).
Numbering of substitutions follows the chain as printed.

B1: Clone H IgG (antibody, V domains shown)
VH: QVQLVQSGAEVKKPGSSVKVSCKASGGTFSSYYISWVRQAPGQGLEWMGGIAPISGTASYAQKFQGRVTITADESTSTAYMELSSLRSEDTAVYYCARGLAYDGYFDLWGRGTLVTVSS
VL: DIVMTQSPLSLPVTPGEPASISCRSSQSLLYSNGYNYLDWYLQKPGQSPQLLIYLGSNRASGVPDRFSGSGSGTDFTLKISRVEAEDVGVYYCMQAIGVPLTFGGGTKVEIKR
notes: IgG format
B2: Clone M IgG (antibody, V domains shown)
VH: QVQLVQSGAEVKKPGASVKVSCKASGYTFDSYGINWVRQAPGQGLEWMGWISAYSGDTAYAQELQGRVTMTTDTSTSTAYMELRSLRSDDTAVYYCVRDTQYGGSPYWGQGTLVTVSS
VL: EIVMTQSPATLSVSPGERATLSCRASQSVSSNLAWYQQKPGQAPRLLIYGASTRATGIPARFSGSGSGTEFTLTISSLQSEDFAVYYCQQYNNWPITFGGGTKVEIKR
notes: IgG format
B3: Clone I IgG (antibody, V domains shown)
VH: QVQLVQSGAEVKKPGASVKVSCKASGYTFTDEGINWVRQAPGQGLEWMGWITAYSGDTVYAQKLQGRVTMTTDTSTSTAYMELRSLRSDDTAVYYCARGPGQYADVDVWGQGTMVTVSS
VL: DIQMTQSPSSVSASVGDRVTITCRASQGISSWLAWYQQKPGKAPKLLIYAASSLQSGVPSRFSGSGSGTDFTLTISSLQPEDFATYYCQQANSFPITFGGGTKVEIKR
notes: IgG format
B4: Clone K IgG (antibody, V domains shown)
VH: QVQLVQSGAEVKKPGASVKVSCKASGYTFTNEGISWVRQAPGQGLEWMGWISAYTADTFYAQKLQGRVTMTTDTSTSTAYMELRSLRSDDTAVYYCARTRHDTSGLRFDYWGQGTLVTVSS
VL: B3 VL with S30D, A91V, N92H
notes: IgG format
B5: Clone O IgG (antibody, V domains shown)
VH: QVQLVQSGAEVKKPGATVKVSCKASGYTFDSLGMSWVRQAPGQGLEWMGYISTYSGDTVYAQKLQGRVTMTTDTSTSTAYMELRSLRSDDTAVYYCARESGQQVSALDPWGQGTLVTVSS
VL: B3 VL with S31R, A91G, N92A, I96L
notes: IgG format
B6: Clone L IgG (antibody, V domains shown)
VH: B4 VH with T30A, N31S, E32Y, G33D, S35I, Y54L, T55S, A56G, F59V, L106I
VL: B3 VL with S30D, A91V, N92H
notes: IgG format
B7: Clone S IgG (antibody, V domains shown)
VH: B3 VH with D31S, E32Y, V59N
VL: B3 VL with M4L, S31P
notes: IgG format
B8: Clone T IgG (antibody, V domains shown)
VH: B3 VH with D31S, E32Y, V59N
VL: B3 VL with N92S, S93Q
notes: IgG format

Target: T1, GDF15 (Homo sapiens (Human), UniProt Q99988 30-308)
T1 sequence: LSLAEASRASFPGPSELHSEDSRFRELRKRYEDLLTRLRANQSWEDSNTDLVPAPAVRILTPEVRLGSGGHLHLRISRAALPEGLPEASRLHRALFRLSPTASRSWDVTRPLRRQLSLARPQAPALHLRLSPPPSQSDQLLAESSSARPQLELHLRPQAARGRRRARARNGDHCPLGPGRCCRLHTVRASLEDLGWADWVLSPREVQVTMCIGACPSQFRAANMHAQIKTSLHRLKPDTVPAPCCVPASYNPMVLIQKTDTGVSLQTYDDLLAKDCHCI
Test: cell-based or functional assay

**Q.** B1 was tested. Which “GDF15 - GFRAL RET pERK IC50 (pM)” value did it give?
**A.** 254 pM

**Q.** And the “GDF15 - GFRAL-RET Luciferase IC50 (pM)” value?
**A.** 200 pM

**Q.** Which “GDF15 - GFRAL RET pERK IC50 (pM)” value does the source give for B2 here?
**A.** 88.7 pM

**Q.** For B3, which “GDF15 - GFRAL RET pERK IC50 (pM)” value is on record?
**A.** 34.5 pM

**Q.** And the “GDF15 - GFRAL-RET Luciferase IC50 (pM)” value?
**A.** 79.3 pM

**Q.** What does the source list for B4?
**A.** GDF15 - GFRAL RET pERK IC50 (pM): 187 pM; GDF15 - GFRAL-RET Luciferase IC50 (pM): 813 pM

**Q.** With B5 as the binder, how does the “GDF15 - GFRAL-RET Luciferase IC50 (pM)” value read?
**A.** 150 pM

**Q.** How did the “GDF15 - GFRAL RET pERK IC50 (pM)” value turn out when B6 was run?
**A.** 13.5 pM

**Q.** And the “GDF15 - GFRAL-RET Luciferase IC50 (pM)” value?
**A.** 274 pM

Target: T2, GDF11 (UniProt O95390 299-407)
T2 construct: Also the GDF-11 ligand of the ActRIIB/SMAD reporter assay
T2 sequence (O95390 299-407 limits assumed): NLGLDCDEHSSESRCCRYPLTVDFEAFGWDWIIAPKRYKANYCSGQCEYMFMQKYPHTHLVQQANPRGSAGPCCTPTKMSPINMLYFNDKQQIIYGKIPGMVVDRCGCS
Test: Octet BLI, IgG on tip, avid

**Q.** Does B1 bind?
**A.** no binding (tested: 100 nM)

**Q.** Does B2 bind?
**A.** no binding (tested: 100 nM)

**Q.** Does B3 bind?
**A.** no binding (tested: 100 nM)

**Q.** Does B4 bind?
**A.** no binding (tested: 100 nM)

**Q.** Does B5 bind?
**A.** no binding (tested: 100 nM)

**Q.** Does B6 bind?
**A.** no binding (tested: 100 nM)

**Q.** Does B7 bind?
**A.** no binding (tested: 100 nM)

**Q.** Does B8 bind?
**A.** no binding (tested: 100 nM)

Target: T3, Human Activin B (human, UniProt P09529 293-407)
T3 construct: Also used for the Activin B ligand of the ActRIIB/SMAD reporter assay, where the species is not restated
T3 sequence (looked up): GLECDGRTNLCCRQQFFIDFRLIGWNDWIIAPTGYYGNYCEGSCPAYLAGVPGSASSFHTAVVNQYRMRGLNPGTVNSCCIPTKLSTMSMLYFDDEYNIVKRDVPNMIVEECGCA
Test: Octet BLI, IgG on tip, avid

**Q.** Does B1 bind?
**A.** no binding (tested: 100 nM)

**Q.** Does B2 bind?
**A.** no binding (tested: 100 nM)

**Q.** Does B3 bind?
**A.** no binding (tested: 100 nM)

**Q.** Does B4 bind?
**A.** no binding (tested: 100 nM)

**Q.** Does B5 bind?
**A.** no binding (tested: 100 nM)

**Q.** Does B6 bind?
**A.** no binding (tested: 100 nM)

**Q.** Does B7 bind?
**A.** no binding (tested: 100 nM)

**Q.** Does B8 bind?
**A.** no binding (tested: 100 nM)

Target: T4, GDF10 (UniProt P55107 369-478)
T4 sequence (looked up): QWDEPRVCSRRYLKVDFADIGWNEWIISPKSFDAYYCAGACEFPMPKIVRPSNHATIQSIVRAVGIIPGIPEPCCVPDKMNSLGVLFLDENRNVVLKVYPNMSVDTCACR
Test: Octet BLI, IgG on tip, avid

**Q.** Does B1 bind?
**A.** no binding (tested: 100 nM)

**Q.** Does B2 bind?
**A.** no binding (tested: 100 nM)

**Q.** Does B3 bind?
**A.** no binding (tested: 100 nM)

**Q.** Does B4 bind?
**A.** no binding (tested: 100 nM)

**Q.** How did the Kd turn out when B5 was run?
**A.** 26.7 nM

**Q.** Does B6 bind?
**A.** no binding (tested: 100 nM)

**Q.** Does B7 bind?
**A.** no binding (tested: 100 nM)

**Q.** Does B8 bind?
**A.** no binding (tested: 100 nM)

Target: GDF8 (UniProt O14793 267-375)
Test: Octet BLI, IgG on tip, avid

**Q.** Does B1 bind?
**A.** no binding (tested: 100 nM)

**Q.** Does B2 bind?
**A.** no binding (tested: 100 nM)

**Q.** Does B3 bind?
**A.** no binding (tested: 100 nM)

**Q.** Does B4 bind?
**A.** no binding (tested: 100 nM)

**Q.** Does B5 bind?
**A.** no binding (tested: 100 nM)

**Q.** Does B6 bind?
**A.** no binding (tested: 100 nM)

**Q.** Does B7 bind?
**A.** no binding (tested: 100 nM)

**Q.** Does B8 bind?
**A.** no binding (tested: 100 nM)

Target: T5, GDNF (UniProt P39905 78-211)
T5 sequence (looked up): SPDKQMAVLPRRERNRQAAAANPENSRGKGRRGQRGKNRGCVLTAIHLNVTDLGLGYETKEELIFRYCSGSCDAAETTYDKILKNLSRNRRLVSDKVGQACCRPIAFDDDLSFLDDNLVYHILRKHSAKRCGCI
Test: Octet BLI, IgG on tip, avid

**Q.** Does B1 bind?
**A.** no binding (tested: 100 nM)

**Q.** B2 was tested. Which Kd did it give?
**A.** 31.4 nM

**Q.** For B4, which Kd is on record?
**A.** 333 nM

**Q.** Does B5 bind?
**A.** no binding (tested: 100 nM)

**Q.** With B6 as the binder, how does the Kd read?
**A.** 229 nM

**Q.** Does B7 bind?
**A.** no binding (tested: 100 nM)

**Q.** Does B8 bind?
**A.** no binding (tested: 100 nM)

Target: T6, Human Activin A Fc (human, UniProt P08476 311-426)
T6 sequence (looked up): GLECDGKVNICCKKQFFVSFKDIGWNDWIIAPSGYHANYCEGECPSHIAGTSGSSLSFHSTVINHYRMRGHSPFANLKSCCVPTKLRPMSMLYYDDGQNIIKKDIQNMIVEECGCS
Test: Octet BLI, IgG on tip, avid

**Q.** Does B1 bind?
**A.** no binding (tested: 100 nM)

**Q.** Does B2 bind?
**A.** no binding (tested: 100 nM)

**Q.** Does B3 bind?
**A.** no binding (tested: 100 nM)

**Q.** Does B4 bind?
**A.** no binding (tested: 100 nM)

**Q.** Does B5 bind?
**A.** no binding (tested: 100 nM)

**Q.** Does B6 bind?
**A.** no binding (tested: 100 nM)

**Q.** Does B7 bind?
**A.** no binding (tested: 100 nM)

**Q.** Does B8 bind?
**A.** no binding (tested: 100 nM)

Target: T7, Human BMP9 (human, UniProt Q9UK05 320-429)
T7 sequence (looked up): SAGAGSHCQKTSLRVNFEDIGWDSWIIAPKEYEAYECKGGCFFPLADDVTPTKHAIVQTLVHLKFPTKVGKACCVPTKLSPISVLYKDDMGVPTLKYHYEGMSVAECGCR
Test: Octet BLI, IgG on tip, avid

**Q.** Does B1 bind?
**A.** no binding (tested: 100 nM)

**Q.** Does B2 bind?
**A.** no binding (tested: 100 nM)

**Q.** Does B3 bind?
**A.** no binding (tested: 100 nM)

**Q.** Does B4 bind?
**A.** no binding (tested: 100 nM)

**Q.** Does B5 bind?
**A.** no binding (tested: 100 nM)

**Q.** Does B6 bind?
**A.** no binding (tested: 100 nM)

**Q.** Does B7 bind?
**A.** no binding (tested: 100 nM)

**Q.** Does B8 bind?
**A.** no binding (tested: 100 nM)

Target: T8, Human BMP10 (human, UniProt O95393 317-424)
T8 sequence (looked up): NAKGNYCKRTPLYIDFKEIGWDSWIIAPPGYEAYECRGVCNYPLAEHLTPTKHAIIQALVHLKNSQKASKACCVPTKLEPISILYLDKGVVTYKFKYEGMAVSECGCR
Test: Octet BLI, IgG on tip, avid

**Q.** Does B1 bind?
**A.** no binding (tested: 100 nM)

**Q.** Does B2 bind?
**A.** no binding (tested: 100 nM)

**Q.** Does B3 bind?
**A.** no binding (tested: 100 nM)

**Q.** Does B4 bind?
**A.** no binding (tested: 100 nM)

**Q.** Does B5 bind?
**A.** no binding (tested: 100 nM)

**Q.** Does B6 bind?
**A.** no binding (tested: 100 nM)

**Q.** Does B7 bind?
**A.** no binding (tested: 100 nM)

**Q.** Does B8 bind?
**A.** no binding (tested: 100 nM)

Target: T9, Mouse GDF15 Fc (mouse, UniProt Q9Z0J7 189-303, limits assumed)
T9 construct: also called mouse GDF15Fc fusion
T9 sequence (looked up): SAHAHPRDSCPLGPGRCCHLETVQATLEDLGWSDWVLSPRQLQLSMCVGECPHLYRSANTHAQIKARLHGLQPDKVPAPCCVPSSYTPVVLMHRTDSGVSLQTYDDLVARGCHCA
Test: Octet BLI, IgG on AHC tip, avid
Protocol: (§1) Briefly, ForteBio affinity measurements were performed by loading IgGs on-line onto AHC sensors. Sensors were equilibrated off-line in assay buffer for 30 min and then monitored on-line for 60 seconds for baseline establishment. Sensors with loaded IgGs were exposed to 100 nM antigen for 3 minutes, and afterwards were transferred to assay buffer for 3 min for off-rate measurement. All kinetics were analyzed using the 1:1 binding model.

**Q.** Which Kd does the source give for B3 here?
**A.** 0.152 nM

Target: T10, Cyno GDF15 Fc (cyno, UniProt G7PWZ3 193-308)
T10 construct: also called cyno GDF15-Fc fusion
T10 sequence: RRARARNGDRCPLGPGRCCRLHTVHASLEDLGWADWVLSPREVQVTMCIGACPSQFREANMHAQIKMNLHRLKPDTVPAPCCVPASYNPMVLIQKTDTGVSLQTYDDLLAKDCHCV
Test: Octet BLI, IgG on AHC tip, avid
Protocol: as §1

**Q.** Which Kd does the source give for B3 here?
**A.** 3.04 nM

Target: T11, Rat GDF-15 Fc (rat, UniProt Q9Z0J6 189-303, limits assumed)
T11 sequence (looked up): T9 sequence (looked up) with A4L, Q63L, K75R, R110Q
Test: Octet BLI, IgG on AHC tip, avid
Protocol: as §1

**Q.** B3 was tested. Which Kd did it give?
**A.** 1.18 nM
